Source: paper PMC4028250, “β1,6 GlcNAc Branches-Modified PTPRT Attenuates Its Activity and Promotes Cell Migration by STAT3 Pathway” (PLoS ONE, 2014)

Target: the molecule itself
Assay: cross-linking; Mock-7721, GnT-V-7721, Mock-HT29 and GnT-V-HT29 cells grown to confluence, cell-surface proteins cross-linked with 3 mM BS3 for 2 hours at 4°C (on ice), stopped with 20 mM Tris-Cl, SDS lysis, immunoblot for PTPRT; dimer and monomer bands quantified with Image J

B1: receptor protein tyrosine phosphatase rho (PTPRT) (receptor, human (endogenous in SMMC-7721 and HT29), UniProt O14522 26-1441, looked up)
chain: QSAAGGCSFDEHYSNCGYSVALGTNGFTWEQINTWEKPMLDQAVPTGSFMMVNSSGRASGQKAHLLLPTLKENDTHCIDFHYYFSSRDRSSPGALNVYVKVNGGPQGNPVWNVSGVVTEGWVKAELAISTFWPHFYQVIFESVSLKGHPGYIAVDEVRVLAHPCRKAPHFLRLQNVEVNVGQNATFQCIAGGKWSQHDKLWLQQWNGRDTALMVTRVVNHRRFSATVSVADTAQRSVSKYRCVIRSDGGSGVSNYAELIVKEPPTPIAPPELLAVGATYLWIKPNANSIIGDGPIILKEVEYRTTTGTWAETHIVDSPNYKLWHLDPDVEYEIRVLLTRPGEGGTGPPGPPLTTRTKCADPVHGPQNVEIVDIRARQLTLQWEPFGYAVTRCHSYNLTVQYQYVFNQQQYEAEEVIQTSSHYTLRGLRPFMTIRLRLLLSNPEGRMESEELVVQTEEDVPGAVPLESIQGGPFEEKIYIQWKPPNETNGVITLYEINYKAVGSLDPSADLSSQRGKVFKLRNETHHLFVGLYPGTTYSFTIKASTAKGFGPPVTTRIATKISAPSMPEYDTDTPLNETDTTITVMLKPAQSRGAPVSVYQLVVKEERLQKSRRAADIIECFSVPVSYRNASSLDSLHYFAAELKPANLPVTQPFTVGDNKTYNGYWNPPLSPLKSYSIYFQALSKANGETKINCVRLATKGASTQNSNTVEPEKQVDNTVKMAGVIAGLLMFIIILLGVMLTIKRRRNAYSYSYYLKLAKKQKETQSGAQREMGPVASADKPTTKLSASRNDEGFSSSSQDVNGFTDGSRGELSQPTLTIQTHPYRTCDPVEMSYPRDQFQPAIRVADLLQHITQMKRGQGYGFKEEYEALPEGQTASWDTAKEDENRNKNRYGNIISYDHSRVRLLVLDGDPHSDYINANYIDGYHRPRHYIATQGPMQETVKDFWRMIWQENSASIVMVTNLVEVGRVKCVRYWPDDTEVYGDIKVTLIETEPLAEYVIRTFTVQKKGYHEIRELRLFHFTSWPDHGVPCYATGLLGFVRQVKFLNPPEAGPIVVHCSAGAGRTGCFIAIDTMLDMAENEGVVDIFNCVRELRAQRVNLVQTEEQYVFVHDAILEACLCGNTAIPVCEFRSLYYNISRLDPQTNSSQIKDEFQTLNIVTPRVRPEDCSIGLLPRNHDKNRSMDVLPLDRCLPFLISVDGESSNYINAALMDSHKQPAAFVVTQHPLPNTVADFWRLVFDYNCSSVVMLNEMDTAQFCMQYWPEKTSGCYGPIQVEFVSADIDEDIIHRIFRICNMARPQDGYRIVQHLQYIGWPAYRDTPPSKRSLLKVVRRLEKWQEQYDGREGRTVVHCLNGGGRSGTFCAICSVCEMIQQQNIIDVFHIVKTLRNNKSNMVETLEQYKFVYEVALEYLSSF
modifications: N-glycans with β1,6 GlcNAc branches (tri- and tetra-antennary), more of them in GnT-V overexpressing cells; sites not mapped
notes: receptor protein tyrosine phosphatase rho (PTPRT), type IIB receptor-like PTP, endogenous in human SMMC-7721 and HT29 cells; One molecule for PTPRT of Mock and of GnT-V overexpressing cells: the two differ only in the amount of β1,6 GlcNAc branches on unmapped N-glycan sites; also called PTPRT (ρ); source: endogenous, SMMC-7721 and HT29 cells stably infected with pCDH-puro (Mock) or …
  intensity ratio of dimer to monomer, GnT-V cells against Mock cells: ~2 fold
  stoichiometry N: 2
